# In IntAct's records for PubMed 16571665:
# B1: Protein phosphatase 2C 77 (Arabidopsis thaliana (Mouse-ear cress)), O04719 (parent)
# chain: MDEVSPAVAVPFRPFTDPHAGLRGYCNGESRVTLPESSCSGDGAMKDSSFEINTRQDSLTSSSSAMAGVDISAGDEINGSDEFDPRSMNQSEKKVLSRTESRSLFEFKCVPLYGVTSICGRRPEMEDSVSTIPRFLQVSSSSLLDGRVTNGFNPHLSAHFFGVYDGHGGSQVANYCRERMHLALTEEIVKEKPEFCDGDTWQEKWKKALFNSFMRVDSEIETVAHAPETVGSTSVVAVVFPTHIFVANCGDSRAVLCRGKTPLALSVDHKPDRDDEAARIEAAGGKVIRWNGARVFGVLAMSRSIGDRYLKPSVIPDPEVTSVRRVKEDDCLILASDGLWDVMTNEEVCDLARKRILLWHKKNAMAGEALLPAEKRGEGKDPAAMSAAEYLSKMALQKGSKDNISVVVVDLKGIRKFKSKSLN
# partner: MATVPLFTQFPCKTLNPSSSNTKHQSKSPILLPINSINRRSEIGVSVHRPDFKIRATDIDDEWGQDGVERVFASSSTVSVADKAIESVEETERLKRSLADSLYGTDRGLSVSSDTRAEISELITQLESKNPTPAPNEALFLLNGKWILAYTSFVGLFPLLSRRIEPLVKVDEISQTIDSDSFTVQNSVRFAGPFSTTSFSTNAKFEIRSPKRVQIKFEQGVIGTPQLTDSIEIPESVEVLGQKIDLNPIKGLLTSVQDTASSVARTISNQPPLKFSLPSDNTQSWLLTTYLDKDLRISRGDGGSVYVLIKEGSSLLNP
# Variants of: B1
# Details: with pap1_arath PAP1, O81439
row,Variant,effect of a mutation on the interaction
1,MDEVSPAVAVPFRPFTDPHAGLRGYCNGESRVTLPESSCSGDGAMKDSSFEINTRQDSLTSSSSAMAGVDISAGDEINGSDEFDPRSMNQSEKKVLSRTESRSLFEFKCVPLYGVTSICGRRPEMEDSVSTIPRFLQVSSSSLLDGRVTNGFNPHLSAHFFGVYDGHDGSQVANYCRERMHLALTEEIVKEKPEFCDGDTWQEKWKKALFNSFMRVDSEIETVAHAPETVGSTSVVAVVFPTHIFVANCGDSRAVLCRGKTPLALSVDHKPDRDDEAARIEAAGGKVIRWNGARVFGVLAMSRSIGDRYLKPSVIPDPEVTSVRRVKEDDCLILASDGLWDVMTNEEVCDLARKRILLWHKKNAMAGEALLPAEKRGEGKDPAAMSAAEYLSKMALQKGSKDNISVVVVDLKGIRKFKSKSLN [G168D],disrupting interaction strength

# Variants of: B1
# Details: with pap1_arath PAP1, O81439
# Remark: another data set of the same source
row,Variant,effect of a mutation on the interaction
1,MDEVSPAVAVPFRPFTDPHAGLRGYCNGESRVTLPESSCSGDGAMKDSSFEINTRQDSLTSSSSAMAGVDISAGDEINGSDEFDPRSMNQSEKKVLSRTESRSLFEFKCVPLYGVTSICGRRPEMEDSVSTIPRFLQVSSSSLLDGRVTNGFNPHLSAHFFGVYDGHDGSQVANYCRERMHLALTEEIVKEKPEFCDGDTWQEKWKKALFNSFMRVDSEIETVAHAPETVGSTSVVAVVFPTHIFVANCGDSRAVLCRGKTPLALSVDHKPDRDDEAARIEAAGGKVIRWNGARVFGVLAMSRSIGDRYLKPSVIPDPEVTSVRRVKEDDCLILASDGLWDVMTNEEVCDLARKRILLWHKKNAMAGEALLPAEKRGEGKDPAAMSAAEYLSKMALQKGSKDNISVVVVDLKGIRKFKSKSLN [G168D],disrupting interaction
